Assays:
[1] = biological target: poly-GT oligonucleotide tagged anti-TSH mouse monoclonal IgG; assay: fluorescent microspheres on the poly-CA microspot carrying Poly-GT-Mouse IgG, confocal laser scanning, ex 568 / em 585; control 22.0 ± 0.2
[2] = biological target: poly-CT oligonucleotide tagged rabbit IgG; assay: fluorescent microspheres on the poly-GA microspot carrying Poly-CT-Rabbit IgG, confocal laser scanning, ex 568 / em 585
[3] = biological target: poly-CT oligonucleotide tagged rabbit IgG; assay: fluorescent microspheres on the poly-GA microspot carrying Poly-CT-Rabbit IgG, confocal laser scanning, ex 488 / em 525; control 13.3 ± 0.5
[4] = biological target: poly-GT oligonucleotide tagged anti-TSH mouse monoclonal IgG; assay: fluorescent microspheres on the poly-CA microspot carrying Poly-GT-Mouse IgG, confocal laser scanning, ex 488 / em 525

Substance: goat anti-rabbit IgG (whole molecule) antibody conjugated red FLUOSPHERES
- Red Signal [1]: 24
- Red Signal [2]: 99.8

Substance: goat anti-mouse IgG (whole molecule) antibody conjugated yellow-green FLUOSPHERES
- Yellow/Green Signal [3]: 16.9
- Yellow/Green Signal [4]: 101
